Measured values from US20220411483A1 (Chugai, published 2022).

How the values were obtained:
[1] = target: T1, human FcγRIIa R type extracellular domain with C-terminal His tag (human, UniProt P12318 34-217); experiment: SPR, antibody captured, FcgR analyte
T1 construct: extracellular domain; also called FcgRIIaR
T1 sequence (looked up): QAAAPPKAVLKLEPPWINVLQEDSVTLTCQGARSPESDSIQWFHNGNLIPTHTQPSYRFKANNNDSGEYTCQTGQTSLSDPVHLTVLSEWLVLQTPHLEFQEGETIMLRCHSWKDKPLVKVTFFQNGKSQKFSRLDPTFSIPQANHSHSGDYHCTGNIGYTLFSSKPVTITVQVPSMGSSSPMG

[2] = target: T2, human FcγRIIb extracellular domain with C-terminal His tag (human, UniProt P31994 43-217); experiment: SPR, antibody captured, FcgR analyte
T2 construct: extracellular domain; also called FcgRIIb
T2 sequence (looked up): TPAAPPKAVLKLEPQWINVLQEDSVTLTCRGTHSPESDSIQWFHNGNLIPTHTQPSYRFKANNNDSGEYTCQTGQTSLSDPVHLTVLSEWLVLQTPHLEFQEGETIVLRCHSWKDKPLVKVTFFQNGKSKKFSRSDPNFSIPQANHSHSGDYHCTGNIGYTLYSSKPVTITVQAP

[3] = target: T3, human FcγRIa extracellular domain with C-terminal His tag (human, UniProt P12314 16-292); experiment: SPR, antibody captured, FcgR analyte
T3 construct: Whole entry named; also called FcgRIa
T3 sequence (P12314 16-292): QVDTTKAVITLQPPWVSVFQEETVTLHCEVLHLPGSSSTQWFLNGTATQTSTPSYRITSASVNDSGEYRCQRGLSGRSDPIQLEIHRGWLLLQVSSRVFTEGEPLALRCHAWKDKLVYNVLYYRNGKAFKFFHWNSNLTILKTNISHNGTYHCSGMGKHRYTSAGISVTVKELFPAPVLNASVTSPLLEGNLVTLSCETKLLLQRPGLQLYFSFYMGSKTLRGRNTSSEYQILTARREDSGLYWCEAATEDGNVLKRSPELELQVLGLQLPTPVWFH

[4] = target: T4, human FcγRIIa H type extracellular domain with C-terminal His tag (human, UniProt P12318 34-217); experiment: SPR, KD of IL6R-G1d/IL6R-L divided by KD of variant
T4 construct: extracellular domain; also called FcgRIIaH
T4 sequence (looked up): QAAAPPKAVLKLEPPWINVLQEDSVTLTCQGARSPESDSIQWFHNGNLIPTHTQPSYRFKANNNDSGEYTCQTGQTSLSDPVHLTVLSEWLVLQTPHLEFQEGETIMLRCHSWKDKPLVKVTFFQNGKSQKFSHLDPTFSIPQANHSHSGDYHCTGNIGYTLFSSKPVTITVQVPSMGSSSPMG

[5] = target: T5, human FcγRIIIa V type extracellular domain with C-terminal His tag (human, UniProt P08637 17-208); experiment: as above
T5 construct: extracellular domain; also called FcgRIIIaV
T5 sequence (P08637 17-208 F176V): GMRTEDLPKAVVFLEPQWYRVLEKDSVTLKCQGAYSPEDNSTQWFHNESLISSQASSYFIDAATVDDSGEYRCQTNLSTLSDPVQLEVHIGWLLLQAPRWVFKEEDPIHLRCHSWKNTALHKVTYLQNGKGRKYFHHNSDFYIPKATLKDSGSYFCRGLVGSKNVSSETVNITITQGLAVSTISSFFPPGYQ

[6] = target: T1, human FcγRIIa R type extracellular …; experiment: as above
[7] = target: T2, human FcγRIIb extracellular domain with …; experiment: as above
[8] = target: T3, human FcγRIa extracellular domain with …; experiment: as above

B1: IL6R-P770/IL6R-L (antibody, human IgG1, kappa)
heavy: QVQLQESGPGLVKPSETLSLTCAVSGHSISHDHAWSWVRQPPGEGLEWIGFISYSGITNYNPSLQGRVTISRDNSKNTLYLQMNSLRAEDTAVYYCARSLARTTAMDYWGEGTLVTVSSASTKGPSVFPLAPSSKSTSGGTAALGCLVKDYFPEPVTVSWNSGALTSGVHTFPAVLQSSGLYSLSSVVTVPSSSLGTQTYICNVNHKPSNTKVDKKVEPKSCDKTHTCPPCPAPELLGGDSVFLFPPKPKDTLMISRTPEVTCVVIDVSHEDGEVKFNWYVDGVEVHNAKTKPREEQYNSTYRVVSVLTVLHQDWLNGKEYKCKVSNKGLPSSIEKTISKAKGQPREPQVYTLPPSRDELTKNQVSLTCLVKGFYPSDIAVEWESNGQPENNYKTTPPVLDSDGSFFLYSKLTVDKSRWQQGNVFSCSVMHEALHNHYTQKSLSLSP
light: not shown
[1]
  Kd: 3400 nM
[2]
  Kd: 170 nM
[3]
  Kd: 15 nM
[4]
  Relative FcgRIIaH-binding Activity: 0.006
[5]
  Relative FcgRIIIaV-binding Activity: 0.007
[6]
  Relative FcgRIIaR-binding Activity: 0.32
[7]
  Relative FcgRIIb-binding Activity: 12.4
[8]
  Relative FcgRIa-binding Activity: 0.021

B2: IL6R-P776/IL6R-L (antibody, human IgG1, kappa)
heavy: QVQLQESGPGLVKPSETLSLTCAVSGHSISHDHAWSWVRQPPGEGLEWIGFISYSGITNYNPSLQGRVTISRDNSKNTLYLQMNSLRAEDTAVYYCARSLARTTAMDYWGEGTLVTVSSASTKGPSVFPLAPSSKSTSGGTAALGCLVKDYFPEPVTVSWNSGALTSGVHTFPAVLQSSGLYSLSSVVTVPSSSLGTQTYICNVNHKPSNTKVDKKVEPKSCDKTHTCPPCPAPELLGGDSVFLFPPKPKDTLMISRTPEVTCVVVDVSHEDGEVKFNWYVDGVEVHNAKTKPREEQYNSTYRVVSVLTVLHQDWLNGKEYKCEVSNKALPAPIEKTISKAKGQPREPQVYTLPPSRDELTKNQVSLTCLVKGFYPSDIAVEWESNGQPENNYKTTPPVLDSDGSFFLYSKLTVDKSRWQQGNVFSCSVMHEALHNHYTQKSLSLSP
light: not shown
[1]
  Kd: 4000 nM
[2]
  Kd: 280 nM
[3]
  Kd: 5.2 nM
[4]
  Relative FcgRIIaH-binding Activity: 0.006
[5]
  Relative FcgRIIIaV-binding Activity: 0.01
[6]
  Relative FcgRIIaR-binding Activity: 0.28
[7]
  Relative FcgRIIb-binding Activity: 7.5
[8]
  Relative FcgRIa-binding Activity: 0.062

B3: IL6R-P773/IL6R-L (antibody, human IgG1, kappa)
heavy: QVQLQESGPGLVKPSETLSLTCAVSGHSISHDHAWSWVRQPPGEGLEWIGFISYSGITNYNPSLQGRVTISRDNSKNTLYLQMNSLRAEDTAVYYCARSLARTTAMDYWGEGTLVTVSSASTKGPSVFPLAPSSKSTSGGTAALGCLVKDYFPEPVTVSWNSGALTSGVHTFPAVLQSSGLYSLSSVVTVPSSSLGTQTYICNVNHKPSNTKVDKKVEPKSCDKTHTCPPCPAPELLGGDSVFLFPPKPKDTLMISRTPEVTCVVVDVAEEDGEVKFNWYVDGVEVHNAKTKPREEQYNSTYRVVSVLTVLHQDWLNGKEYKCAVSNKALPAPIEKTISKAKGQPREPQVYTLPPSRDELTKNQVSLTCLVKGFYPSDIAVEWESNGQPENNYKTTPPVLDSDGSFFLYSKLTVDKSRWQQGNVFSCSVMHEALHNHYTQKSLSLSP
light: not shown
[1]
  Kd: 2700 nM
[2]
  Kd: 140 nM
[3]
  Kd: 2.1 nM
[4]
  Relative FcgRIIaH-binding Activity: 0.006
[5]
  Relative FcgRIIIaV-binding Activity: 0.009
[6]
  Relative FcgRIIaR-binding Activity: 0.41
[7]
  Relative FcgRIIb-binding Activity: 15
[8]
  Relative FcgRIa-binding Activity: 0.152

B4: IL6R-P771/IL6R-L (antibody, human IgG1, kappa)
heavy: QVQLQESGPGLVKPSETLSLTCAVSGHSISHDHAWSWVRQPPGEGLEWIGFISYSGITNYNPSLQGRVTISRDNSKNTLYLQMNSLRAEDTAVYYCARSLARTTAMDYWGEGTLVTVSSASTKGPSVFPLAPSSKSTSGGTAALGCLVKDYFPEPVTVSWNSGALTSGVHTFPAVLQSSGLYSLSSVVTVPSSSLGTQTYICNVNHKPSNTKVDKKVEPKSCDKTHTCPPCPAPELLGGDSVFLFPPKPKDTLMISRTPEVTCVVIDVSHEDGEVKFNWYVDGVEVHNAKTKPREEQYNSTYRVVSVLTVLHQDWLNGKEYKCAVSNKALPAPIEKTISKAKGQPREPQVYTLPPSRDELTKNQVSLTCLVKGFYPSDIAVEWESNGQPENNYKTTPPVLDSDGSFFLYSKLTVDKSRWQQGNVFSCSVMHEALHNHYTQKSLSLSP
light: not shown
[1]
  Kd: 4300 nM
[2]
  Kd: 140 nM
[3]
  Kd: 14 nM
[4]
  Relative FcgRIIaH-binding Activity: 0.007
[5]
  Relative FcgRIIIaV-binding Activity: 0.01
[6]
  Relative FcgRIIaR-binding Activity: 0.26
[7]
  Relative FcgRIIb-binding Activity: 15
[8]
  Relative FcgRIa-binding Activity: 0.023

B5: IL6R-P774/IL6R-L (antibody, human IgG1, kappa)
heavy: QVQLQESGPGLVKPSETLSLTCAVSGHSISHDHAWSWVRQPPGEGLEWIGFISYSGITNYNPSLQGRVTISRDNSKNTLYLQMNSLRAEDTAVYYCARSLARTTAMDYWGEGTLVTVSSASTKGPSVFPLAPSSKSTSGGTAALGCLVKDYFPEPVTVSWNSGALTSGVHTFPAVLQSSGLYSLSSVVTVPSSSLGTQTYICNVNHKPSNTKVDKKVEPKSCDKTHTCPPCPAPELLGGDSVFLFPPKPKDTLMISRTPEVTCVVVDVAEEDGEVKFNWYVDGVEVHNAKTKPREEQYNSTYRVVSVLTVLHQDWLNGKEYKCEVSNKALPAPIEKTISKAKGQPREPQVYTLPPSRDELTKNQVSLTCLVKGFYPSDIAVEWESNGQPENNYKTTPPVLDSDGSFFLYSKLTVDKSRWQQGNVFSCSVMHEALHNHYTQKSLSLSP
light: not shown
[1]
  Kd: 2000 nM
[2]
  Kd: 88 nM
[3]
  Kd: 1.1 nM
[4]
  Relative FcgRIIaH-binding Activity: 0.008
[5]
  Relative FcgRIIIaV-binding Activity: 0.012
[6]
  Relative FcgRIIaR-binding Activity: 0.55
[7]
  Relative FcgRIIb-binding Activity: 23.9
[8]
  Relative FcgRIa-binding Activity: 0.291

B6: IL6R-P772/IL6R-L (antibody, human IgG1, kappa)
heavy: QVQLQESGPGLVKPSETLSLTCAVSGHSISHDHAWSWVRQPPGEGLEWIGFISYSGITNYNPSLQGRVTISRDNSKNTLYLQMNSLRAEDTAVYYCARSLARTTAMDYWGEGTLVTVSSASTKGPSVFPLAPSSKSTSGGTAALGCLVKDYFPEPVTVSWNSGALTSGVHTFPAVLQSSGLYSLSSVVTVPSSSLGTQTYICNVNHKPSNTKVDKKVEPKSCDKTHTCPPCPAPELLGGDSVFLFPPKPKDTLMISRTPEVTCVVIDVSHEDGEVKFNWYVDGVEVHNAKTKPREEQYNSTYRVVSVLTVLHQDWLNGKEYKCEVSNKALPAPIEKTISKAKGQPREPQVYTLPPSRDELTKNQVSLTCLVKGFYPSDIAVEWESNGQPENNYKTTPPVLDSDGSFFLYSKLTVDKSRWQQGNVFSCSVMHEALHNHYTQKSLSLSP
light: not shown
[1]
  Kd: 3100 nM
[2]
  Kd: 97 nM
[3]
  Kd: 9.1 nM
[4]
  Relative FcgRIIaH-binding Activity: 0.006
[5]
  Relative FcgRIIIaV-binding Activity: 0.006
[6]
  Relative FcgRIIaR-binding Activity: 0.35
[7]
  Relative FcgRIIb-binding Activity: 21.6
[8]
  Relative FcgRIa-binding Activity: 0.035

B7: IL6R-P775/IL6R-L (antibody, human IgG1, kappa)
heavy: QVQLQESGPGLVKPSETLSLTCAVSGHSISHDHAWSWVRQPPGEGLEWIGFISYSGITNYNPSLQGRVTISRDNSKNTLYLQMNSLRAEDTAVYYCARSLARTTAMDYWGEGTLVTVSSASTKGPSVFPLAPSSKSTSGGTAALGCLVKDYFPEPVTVSWNSGALTSGVHTFPAVLQSSGLYSLSSVVTVPSSSLGTQTYICNVNHKPSNTKVDKKVEPKSCDKTHTCPPCPAPELLGGDSVFLFPPKPKDTLMISRTPEVTCVVVDVSHEDGEVKFNWYVDGVEVHNAKTKPREEQYNSTYRVVSVLTVLHQDWLNGKEYKCAVSNKALPAPIEKTISKAKGQPREPQVYTLPPSRDELTKNQVSLTCLVKGFYPSDIAVEWESNGQPENNYKTTPPVLDSDGSFFLYSKLTVDKSRWQQGNVFSCSVMHEALHNHYTQKSLSLSP
light: not shown
[1]
  Kd: 5400 nM
[2]
  Kd: 400 nM
[3]
  Kd: 8.6 nM
[4]
  Relative FcgRIIaH-binding Activity: 0.005
[5]
  Relative FcgRIIIaV-binding Activity: 0.007
[6]
  Relative FcgRIIaR-binding Activity: 0.2
[7]
  Relative FcgRIIb-binding Activity: 5.3
[8]
  Relative FcgRIa-binding Activity: 0.037
